Target: T1, GST-tagged PTP1B, full length (UniProt P18031 1-435)
T1 construct: protein tyrosine phosphatase PTP1B (PTPN1), full-length cDNA subcloned into pGEX-4T1; The cDNA probably comes from pJ3H PTP1B (Addgene 8601); also called GST-PTP1B; source: E. coli, purified (glutathione resin)
T1 sequence (looked up): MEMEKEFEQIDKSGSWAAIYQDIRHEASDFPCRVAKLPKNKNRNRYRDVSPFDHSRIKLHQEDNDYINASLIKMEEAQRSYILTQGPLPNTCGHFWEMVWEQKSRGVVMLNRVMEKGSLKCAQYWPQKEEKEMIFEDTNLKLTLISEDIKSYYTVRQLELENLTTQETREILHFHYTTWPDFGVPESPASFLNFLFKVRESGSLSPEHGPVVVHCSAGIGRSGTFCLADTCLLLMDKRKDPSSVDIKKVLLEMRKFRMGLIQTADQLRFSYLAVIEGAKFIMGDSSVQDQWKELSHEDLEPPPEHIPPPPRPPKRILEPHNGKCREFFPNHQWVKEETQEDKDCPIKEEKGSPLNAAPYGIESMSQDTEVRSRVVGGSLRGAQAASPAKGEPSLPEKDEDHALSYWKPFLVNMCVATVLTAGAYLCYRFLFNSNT
Test: pull-down; GST pull-down with purified proteins from E. coli: His-PDL1-CT / MBP-PDL1-CT (0.5 μg) and 0.5 μg GST or GST-fusion proteins
Conditions: both partners purified

B1: MBP-tagged PD-L1 cytoplasmic domain (domain or fragment, human, UniProt Q9NZQ7 262-290, looked up)
chain: RKGRMMDVKKCGIQDTNSKKQSDTHLEET
notes: PD-L1 cytoplasmic domain, human, amino acids 262-290, subcloned into pET-His6 (Addgene plasmid 29656; named in the acknowledgements as PET His6 MBP TEV LIC cloning vector); The results and legend call it MBP-PDL1-CT, the methods of the pull-down His-PDL1-CT; also called MBP-PDL1-CT; His-PDL1-CT; source: E. coli, purified (His resin)
B1: binds.
